Laboratory results from US20020018783A1.

Molecular target: endogenous CD28 (human, on Jurkat cells and primary T lymphocytes) (human) (UniProt P10747)
Test: cell-based or functional assay

anti-CD28 Mab 28.2 (antibody)
% of dead cells, 3G6-CD28 transduced T lymphocytes, OKT3/28.2, day 3 (trypan blue): 10%
% of dead cells, NTP transduced T lymphocytes, OKT3/28.2, day 6 (trypan blue): 15%
IL-2 secretion with PMA and ionomycin (ELISA, 24 hours), Jurkat-NTP: 960 pg/mL
IL-2 secretion with PMA and ionomycin (ELISA, 24 hours), both cell populations: 3 fold
